This is an account of results in paper PMC2649033, “Comparison between the HCV IRES domain IV RNA structure and the Iron Responsive Element”.

Details in all cases: protein: recombinant; label: 32P-CTP; hairpin
The target of data set [1] is T1, hIRP1 (GST fusion) (human, UniProt P21399 1-889).
T1 sequence: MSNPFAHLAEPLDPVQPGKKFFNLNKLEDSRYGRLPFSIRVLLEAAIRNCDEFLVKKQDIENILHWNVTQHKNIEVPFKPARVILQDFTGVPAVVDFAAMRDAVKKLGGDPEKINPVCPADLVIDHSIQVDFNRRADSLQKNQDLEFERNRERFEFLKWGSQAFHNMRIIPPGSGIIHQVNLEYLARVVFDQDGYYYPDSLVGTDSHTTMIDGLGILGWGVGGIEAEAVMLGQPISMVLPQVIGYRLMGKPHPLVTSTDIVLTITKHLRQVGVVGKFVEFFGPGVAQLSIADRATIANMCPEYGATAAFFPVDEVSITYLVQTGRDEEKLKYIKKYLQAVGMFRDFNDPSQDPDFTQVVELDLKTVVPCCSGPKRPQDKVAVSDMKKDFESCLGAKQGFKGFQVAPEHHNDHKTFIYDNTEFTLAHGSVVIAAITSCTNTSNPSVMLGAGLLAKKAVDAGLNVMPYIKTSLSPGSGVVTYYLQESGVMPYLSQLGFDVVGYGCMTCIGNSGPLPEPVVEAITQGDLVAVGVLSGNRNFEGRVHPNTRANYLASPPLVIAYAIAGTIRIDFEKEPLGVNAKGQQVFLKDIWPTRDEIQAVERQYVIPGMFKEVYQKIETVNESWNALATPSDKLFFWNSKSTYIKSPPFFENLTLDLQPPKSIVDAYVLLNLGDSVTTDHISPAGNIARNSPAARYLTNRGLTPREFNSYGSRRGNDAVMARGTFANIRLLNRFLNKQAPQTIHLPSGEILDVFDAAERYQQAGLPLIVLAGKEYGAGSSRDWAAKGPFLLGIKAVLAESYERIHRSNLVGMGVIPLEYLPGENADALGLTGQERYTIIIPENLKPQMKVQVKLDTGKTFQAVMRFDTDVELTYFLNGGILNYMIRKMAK
The experiment in a line: EMSA; 240 ng hIRP1; 10 mM HEPES pH 7.6, 2 mM MgCl2, 40 mM KCl, 5% glycerol, 1 mM DTT, 20 uL, room temperature 30 min, […] (7%/14%) […]. A general note: Mobility shift assays separate free from complexed probe on a gel.

In data set [2] the target is T1, hIRP1 (GST fusion). Put plainly: EMSA; 240 ng hIRP1; 10 mM HEPES pH 7.6, 2 mM MgCl2, 40 mM KCl, 5% glycerol, 1 mM DTT, 20 uL, room temperature 30 min, then heparin 0.63 ug/uL 10 min; native PAGE (7%/14%) in 0.5x TBE.
For data set [3], the target named is T1, hIRP1 (GST fusion). The experiment in a line: EMSA; 240 ng hIRP1; also bound at 100 ng; approx. equal to ET1+2+3; 10 mM HEPES pH 7.6, 2 mM MgCl2, 40 mM KCl, 5% glycerol, 1 mM DTT, 20 uL, room temperature 30 min, then heparin 0.63 ug/uL 10 min; native PAGE (7%/14%) in 0.5x TBE.
Data set [4] concerns the target T1, hIRP1 (GST fusion). The experiment in a line: EMSA; 2 mM Mg2+; 5.2 nM RNA; mean of 3 experiments; 10 mM HEPES pH 7.6, 2 mM MgCl2, 40 mM KCl, 5% glycerol, 1 mM DTT, 20 uL, room temperature 30 min, […] (7%/14%) […].
Data set [5] has as its target T1, hIRP1 (GST fusion). The experiment in a line: EMSA; 2 mM Mg2+; 5.2 nM RNA; data not shown; 10 mM HEPES pH 7.6, 2 mM MgCl2, 40 mM KCl, 5% glycerol, 1 mM DTT, 20 uL, room temperature 30 min, […] (7%/14%) […].

Broadly, the Kd is the free concentration of one partner at which half of the binding sites on the other are occupied at equilibrium, for simple one-to-one binding.

Take GACCGUGCACCGUGAGCACGAAUC (structured_RNA) [ET1]: the binding result with hIRP1 (GST fusion) [1] is on record as “no binding”.
Consider GACCGUGCACCAUGAGCACGAAUC (structured_RNA) [HCV IRES dIV wild type], for which the binding result in the data set with hIRP1 (GST fusion) [1] is listed as “no binding”.
As to GUUCGUCCUGCUCCGAGGGCAAC (structured_RNA) [IRE (-) negative control], in the data set with hIRP1 (GST fusion) [2], the binding result was “no binding”.
For GUUCGUCCUCAGUGCAGGGCAAC (structured_RNA) [eALAS IRE], the binding result in the data set with hIRP1 (GST fusion) [3] is reported as “binds”.
With GACCGUGCCCAUGAGCACGUC (structured_RNA) [ET2+3], the Kd in the data set with hIRP1 (GST fusion) [4] came to 54 ± 13 nM.
For GACCGUGCCCGUGAGCACGUC (structured_RNA) [ET1+2+3], the Kd in the data set with hIRP1 (GST fusion) [5] was about 0.05 nM.
